This note sets out measurements from patent US20240287172A1 (SCIRHOM, published 2024).

The assay addresses T1, human iRhom1, endogenously expressed (human, UniProt Q96CC6 1-855).
T1 construct: also called iRhom1 on RH-30 cells
T1 sequence: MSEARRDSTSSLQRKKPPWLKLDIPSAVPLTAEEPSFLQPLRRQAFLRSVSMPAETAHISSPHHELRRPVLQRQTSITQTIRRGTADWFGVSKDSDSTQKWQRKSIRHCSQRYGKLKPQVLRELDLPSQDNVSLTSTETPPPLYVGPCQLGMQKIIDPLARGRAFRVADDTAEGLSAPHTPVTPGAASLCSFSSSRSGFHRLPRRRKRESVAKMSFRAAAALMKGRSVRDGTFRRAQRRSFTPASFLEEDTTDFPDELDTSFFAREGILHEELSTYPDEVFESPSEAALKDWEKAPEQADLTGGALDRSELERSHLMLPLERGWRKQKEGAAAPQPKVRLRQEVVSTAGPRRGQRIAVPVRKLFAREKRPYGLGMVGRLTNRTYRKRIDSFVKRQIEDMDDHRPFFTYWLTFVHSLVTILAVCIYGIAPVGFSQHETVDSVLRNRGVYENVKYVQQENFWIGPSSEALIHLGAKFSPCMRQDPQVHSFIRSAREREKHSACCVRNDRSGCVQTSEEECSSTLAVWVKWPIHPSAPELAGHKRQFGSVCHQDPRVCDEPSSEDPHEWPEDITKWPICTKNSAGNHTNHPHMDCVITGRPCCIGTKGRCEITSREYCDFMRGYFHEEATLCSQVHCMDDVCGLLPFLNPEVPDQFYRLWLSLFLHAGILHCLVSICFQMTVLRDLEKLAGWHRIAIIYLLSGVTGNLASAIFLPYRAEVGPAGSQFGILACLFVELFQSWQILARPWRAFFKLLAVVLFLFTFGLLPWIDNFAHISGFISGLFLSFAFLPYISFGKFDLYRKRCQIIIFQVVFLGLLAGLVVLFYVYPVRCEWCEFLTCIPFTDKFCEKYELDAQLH
The experiment in a line: FACS, RH-30 cells; via representative antibody 16. As for the experimental part:
In this study, binding specificity analyses of the hybridoma supernatant leading to the antibody 16 of the invention as a representative example of antibodies 3, 16, 22 and 42 of the invention as well as of the antibody 16 of the invention as a representative example of antibodies 16, 22 and 42 of the invention in cell lines endogenously expressing iRhom2 were performed. The studies were conducted on RPMI-8226 cells, a human B lymphocytic cell line endogenously expressing iRhom2 but being endogenously negative for iRhom1, on THP-1 cells, a human monocytic cell line endogenously expressing both iRhom2 and iRhom1 and on RH-30 cells, a human […] cell line endogenously negative for iRhom2 but endogenously expressing iRhom1.
In brief, human RPMI-8226 cells (Deutsche Sammlung von Mikroorganismen und Zellkulturen, Germany), THP-1 cells (American Type Culture Collection, USA) and RH-30 cells (Deutsche Sammlung von Mikroorganismen und Zellkulturen, Germany) were harvested with 10 mM EDTA in PBS, washed and resuspended in FACS buffer (PBS, 3% FBS, 0.05% sodium azide), and seeded in Nunc U-bottom 96-well plates (Thermo Fisher Scientific, USA) at approximately 2×10⁵ cells per well. […] Finally, cells were resuspended in 150 μl per well of FACS buffer and analyzed using a BD Accuri™ C6 Plus flow cytometer (Becton Dickinson, Germany).

B1: antibody 22 (antibody, V domains shown)
VH: QVTLKESGPGILQPSQTLSLTCSFSGFSLSTFGMGVGWIRQPSGKGLEWLAHIWWDDEKYYNSALKSRLTISKATSKNQVFLKIANVDTADTATYYCARISNYGSNYWYFNVWGTGTTVTVSS
VL: QVVLTQSPALMSASPGEKVTMTCSAGSSVSYMYWYQQKPGSSPRVLIYDTSNLASGVPARFTGSGSGTSYSLTISRMEAEDAATYYCQQWNSYPLTFGAGTKLELK
notes: mouse IgG, kappa light chain; also called clone #22; purified antibody 22
For B1, the binding result is on record as “no binding (tested: 3 µg/ml)”.

B2: antibody 42 (antibody, V domains shown)
VH: QVTLKESGPGILQPSQTLSLTCSLSGFSLSTFGRGVGWIRQPSGKGLEWLAHIWWDDEKYYNPALKSRLTISKDTSKNQVFLRIANVDTADTATYYCARIQNYGSNYWYFDVWGTGTTVTVSS
VL: LIVLTQSPAIMSASPGEKVTMTCGATSRISYMFWYQQKPGSSPRVLIYDTSNLASGVPVRFSGSGSGTSYSLTISRVEAEDVATYYCQQWNSYPLTFGAGTKLELK
notes: mouse IgG, kappa light chain; also called clone #42; purified antibody 42
With B2, the binding result was “no binding (tested: 3 µg/ml)”.
